± gives the uncertainty stated by the source.
Assay: amyloid nucleation score (Sup35N fusion, yeast selection) (log enrichment); library NNK2; higher = more nucleation; inactive = no reads after selection
Outline: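 In psi-negative yeast, Sup35N fusions carrying peptides of 20 random codons were induced with 100 μM copper sulfate for 24 hours. The cells then grew 7 days at 30°C on medium lacking adenine and uracil, and plasmid inserts from input and output were Illumina-sequenced, excluding sequences with under 100 input reads. Nucleation score is the DiMSum log enrichment of output over input reads, centred on the mode score of non-aggregating sequences.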

Row | Substance | amyloid nucleation score
1 | RVYMRISFSLSLLIAMSNLI | -0.315 ± 0.64
2 | PDYYYMTTLLYCRSSKSLKR | -1.46 ± 1.1
3 | DNYLYYYFYSFRLTEALFIC | -0.297 ± 1.1
4 | CFLTNRTRNSYRPSGKPLDM | -0.702 ± 0.61
5 | YILNMFKETLDVLVLKRNCF | -1.18 ± 1.1
6 | LMTSYLRSPDSAPETLRE | -0.484 ± 0.49
7 | YKLAFQSYIDGLLIL | inactive
8 | LVCYLMTMNSNGARSRGVPF | 5.99 ± 0.063
9 | DPVTMLYSF | 0.179 ± 0.32
10 | LHAGPDKSA | 0.068 ± 0.46
11 | VMFSVDHRLTQ | -0.354 ± 0.35
12 | VFELFAMCSVSKCCGVSSVT | 1.46 ± 0.4
13 | RLYVKWSNSISDSRSLCVP | 0.208 ± 0.16
14 | MVINSFPPGWVRGHMIKSTG | -0.39 ± 0.76
15 | PYELCDRTVRMSFWVTVWGH | 0.281 ± 0.49
16 | LMFMLRYPLHASWLGSTHVY | 0.422 ± 0.44
17 | GSGNPGMSIFVKIY | -1.16 ± 0.62
18 | WFGYMALPR | 4.63 ± 0.064
19 | LKEHYF | -1.44 ± 0.55
20 | KMCLIRYMHNPKVGIRLGRS | 0.102 ± 0.33
21 | FALLPCDKVCLGVREWFNFG | inactive
22 | RSICVYTIRYLFSH | -0.513 ± 0.3
23 | VSVVFNARPHRDSHNPSAER | 6.129 ± 0.054
24 | KWPHRYINTLVPLLIRWTYR | -0.421 ± 0.37

Row | Substance | amyloid nucleation score
25 | FAYFDDLGVLMLYQLNRMSL | -0.097 ± 1.1
26 | DAEIMMCYCKFSGFGSITWR | 0.143 ± 0.5
27 | SQRRKQLEYHAVLWY | -0.289 ± 0.76
28 | VAYYEDVLSSYFIERW | -0.392 ± 0.29
29 | FYHCFDVLSSQMYYLKLLST | inactive
30 | RIQWKDGYHVARRVFIGNTG | -0.449 ± 0.63
31 | VRHGMSIFSCYPVTPTRLER | 0.266 ± 0.38
32 | YKGQCSILLGRVRWDFSSSS | -1.02 ± 0.78
33 | LAVLGVVDNIV | 0.516 ± 0.4
34 | TLCTVSHLNDSLLIFIRFVV | inactive
35 | DCLFLKVSPLVHQYYWIGFD | 0.306 ± 0.8
36 | VGIYMIWLISSS | inactive
37 | HAACCASNLLWGRFFWSCAD | 2.74 ± 0.084
38 | DKIRTSKAISQIWLLPIYFE | 0.491 ± 0.57
39 | WWFLIYLSSYRGNRCILVWF | -1.98 ± 0.44
40 | DFDSQRSLKSSDRRFVTFTY | -0.869 ± 0.55
41 | SYTCSS | -0.211 ± 0.48
42 | NLDGCTVIS | 0.774 ± 0.51
43 | NQRVLLLLKSVLYMMVAK | inactive
44 | YLGAGPSNILCHPFISAGSN | inactive
45 | RLVSKEATCPR | -0.058 ± 0.54
46 | LQMPVVF | -0.577 ± 0.26
47 | VESIKGVSCLYMFSYVMLLQ | -0.021 ± 0.37
48 | RVTSEIWGCGGGFREECIKE | 0.143 ± 0.5

Row | Substance | amyloid nucleation score
49 | LATNNVS | 0.979 ± 0.67
50 | NLGGRFCAGFRRNHTCLGRN | -0.458 ± 0.33
51 | PPRGRTAINMTSKCQARVRP | 0.966 ± 0.3
52 | KRCYCIKGVCNLNGISPKVK | -0.468 ± 0.36
53 | DVKKYLRGYCIRPCLLSYLI | -0.807 ± 0.79
54 | IGINLCCGDYFIHVLSASCS | 5.2 ± 0.058
55 | VFFGVSNVVSATYSYWLRIQ | -0.627 ± 0.76
56 | IGKRASSPYYRPSIVVYSWD | -0.302 ± 0.32
57 | DTMDSAAFTLHCIVWGYPVG | inactive
58 | DAVMVWVGDV | 0.179 ± 0.17
59 | ENKGGCFARVDVGCVGSGMR | 0.014 ± 0.42
60 | LWMVFSGNALEKYSSDFCHC | -1.22 ± 0.78
61 | DNIKTVSRMTWPWLMFTVGG | 0.3 ± 0.55
62 | HYSGGCSLPSVKERVGTSIG | -0.604 ± 0.76
63 | FPNLFYFADYVLICNLMIKL | 4.585 ± 0.029
64 | KTDRLTKGTATFKRMTEI | inactive
65 | MKYLIVCDFCGLYSPCGFCF | 7.808 ± 0.037
66 | GVCVKRFFKLVTAGECNSKG | -0.13 ± 0.4
67 | CWRVNRFYVQSSYMGFVWSV | -0.73 ± 1.1
68 | QLFFRYYCEAGDVCIFGHIA | 3.32 ± 0.099
69 | TDCVKTRPCGRLVKIPLYME | -0.708 ± 1.1
70 | NRNPYILGYLRPPEVDYWWW | -0.627 ± 1.1
71 | WFMERVFYNSTNSTQLFEWV | inactive
72 | MTDLLTMVAYRLKGSRVSSM | 0.08 ± 0.37

Row | Substance | amyloid nucleation score
73 | RSGCQMKCITYRGRAGGHLV | 0.882 ± 0.31
74 | GCSNVCERGS | inactive
75 | GVSNNALCSNRITSLNRPML | 0.313 ± 0.17
76 | ALGTEFSVPKFTDGVNMAAR | -0.451 ± 0.48
77 | SFVLIKIMILLCDAVYGH | 3.58 ± 0.054
78 | SISHQRMWKGCADEII | -0.242 ± 1.1
79 | CIELLYEYAIDLQAWVLLER | 0.389 ± 0.66
80 | LMSQCT | -0.926 ± 0.64
81 | ALYRSGHLMLTVNGGCWWDF | 0.45 ± 0.8
82 | LWYGWCKRLYFVRCHYRVSM | -0.543 ± 0.55
83 | TSTCNRRVIWMHLEPGELCV | -0.375 ± 0.76
84 | SCDVTHGGLRQSKHGSGESG | 7.7 ± 0.083
85 | NMFVSSRSM | 0.585 ± 0.8
86 | VKINSTDMSMVQNCNYLIWV | -0.531 ± 1.1
87 | RDSFQCSY | -0.939 ± 0.54
88 | PCCFYLRICLCFSNTVEPIG | 4.07 ± 0.046
89 | ATVSDYKVHGSDLFSFTVND | 8.299 ± 0.058
90 | LMCNKESSNPICGLWVCFWA | 9.489 ± 0.037
91 | VFILSEYVTNAVK | -0.165 ± 0.54
92 | GGDDVEDMYALGPNFFEGG | 0.627 ± 0.66
93 | CLGTWPNLLGSISTMYAD | 0.854 ± 0.53
94 | CLSLSLVMSVGVLKSISQYS | -0.017 ± 1
95 | ALMVEDRH | 0.382 ± 0.8
96 | LRNGVPDADASSRYFWAAEW | 0.712 ± 0.24

Row | Substance | amyloid nucleation score
97 | NRILWSPNEKLLKHVTQVTL | -0.795 ± 0.61
98 | ILLNEVFDRTWSELPGCNCT | 0.043 ± 0.21
99 | DISELDVCFL | -0.287 ± 0.33
100 | KTLFINLHSCCANVGYAVRW | 4.87 ± 0.058
101 | DMMRFYGAPDGQGNTHQNRT | 1.63 ± 0.12
102 | RFSCLSELSFLYFGSH | 5.059 ± 0.034
103 | ISDKSVV | inactive
104 | SDEVVVFRRDMSGCHEFVLV | 1.12 ± 0.27
105 | GHMQYSYFLDLYSKLFCVFN | 4.52 ± 0.062
106 | YYNSATPTDDGWWKISG | -0.574 ± 1
107 | KGGSRLCNFRSATKLSGPLL | 0.597 ± 0.46
108 | VVYRLDFRPFNSPPCMRSAS | 0.074 ± 0.32
109 | NYRLQIINGRRSTSVRVQGA | 0.606 ± 0.36
110 | ITYGKVLR | 0.379 ± 0.44
111 | ASGDGLNFWPFRSPTDAQRA | 0.775 ± 0.5
112 | VVRAFTDKPRSVSDSLGVIN | 1.16 ± 0.18
113 | RMVMSE | 0.16 ± 0.31
114 | VYATFPSTIYLMLVFMESGV | inactive
115 | VVFTGWYHEGWRVV | 0.914 ± 0.18
116 | NNCVQTGSGGGGRCLRDTCG | 3.8 ± 0.085
117 | NQLLTVSWYSL | 2.76 ± 0.091
118 | RTVLATYMTPRSTPKSDYPR | -0.734 ± 0.48
119 | SYSYDRVRKDTELARRNRAV | 0.436 ± 0.44
120 | MKNTVE | -0.803 ± 1

Row | Substance | amyloid nucleation score
121 | SWVNMIMNMSLHTDIRYMLY | 1.66 ± 0.25
122 | GFSRRGELHVSVYHIRDNVR | -1.11 ± 1.1
123 | PEMLHTVILGISSNHYERGL | -1.12 ± 0.74
124 | YYLSFCVSNAGAPGMDLMGQ | 0.328 ± 0.65
125 | FLRYHNAGALENIRYVSCLC | -0.253 ± 0.56
126 | PEYPVQIYMSMDL | -1.33 ± 0.78
127 | WGAEILAHVGPSHEYSR | -0.175 ± 0.49
128 | ACKRGTFQWNACLSPGSCGR | 0.902 ± 0.36
129 | MFIGLLVLRLLFAYQNDKSY | 0.153 ± 0.79
130 | YILLWVYIHDGLAWSTLLDW | 0.757 ± 0.6
131 | FSHFAPWLSSDLCMWSCYLG | 5.269 ± 0.041
132 | RDLEPYLHIWSLIVSARV | -0.014 ± 0.65
133 | FMSIFDWSCVWFYLCKGTWD | -1.75 ± 0.54
134 | VTRPMDDTRVRVSNCVDWII | 0.511 ± 0.38
135 | IRSKSWVVDTQFRPIDSLLV | 0.646 ± 0.49
136 | CVCLD | 0.1 ± 0.33
137 | CDFMYRLMSTYTHTFLVSLR | 1.41 ± 0.14
138 | GECRCYHQTCGFHCNLGFGY | 4.7 ± 0.08
139 | MMVGFLCK | 3.91 ± 0.07
140 | VRCGGVSFGSMWVLDSILVR | 0.652 ± 0.15
141 | MYRRSSWHLWWSKELFDAIY | -0.723 ± 0.79
142 | PDFYMYPSLNDKSDLI | -0.78 ± 0.76
143 | SSIWPIPFYILGVFKVSSVW | inactive
144 | IALQDSDFSLLWFMHVCWDE | -0.463 ± 0.74

Row | Substance | amyloid nucleation score
145 | RHDSCMCFMTDQL | -0.864 ± 0.44
146 | VTYFTILNHMCW | 6.602 ± 0.04
147 | YLLVLFGSGTYITPTLLRIN | -1.55 ± 0.49
148 | IANRGNAKHVRWICMMHHRS | 0.479 ± 0.41
149 | YICSFYEADRSTRCFLIFFF | -1.23 ± 0.44
150 | FQVSCVHQVPRAAGVADGAV | 0.375 ± 0.21
151 | TSNLFHLYGACRRYMGRCSA | 0.434 ± 0.66
152 | SYACNRYKRMTAQIRNQGGM | 0.225 ± 0.42
153 | NKVMGAEGCTGLEL | -0.744 ± 0.28
154 | FSMRSKQGRTFTRLQDGSGL | 4 ± 0.046
155 | ANNRGVSLDPGVHCVGVLLK | 0.551 ± 0.51
156 | FPTFQSLRDPRHMLFRGNFM | -0.317 ± 1.1
157 | FKAVS | -0.291 ± 1.1
158 | SFDWWASHRTIVY | -0.217 ± 0.42
159 | SFVTYSNSLFFTISSDSK | 6.826 ± 0.054
160 | MPYTCMGVFVAHMEATE | 0.316 ± 0.4
161 | QIDLL | -1.36 ± 1.1
162 | DVRSRVHWDMSDQQFIMWWV | -0.716 ± 1.1
163 | VYIAAHTCIC | 4.93 ± 0.079
164 | SGTKPLCKQ | 1.22 ± 0.34
165 | DRARMYYYSEIHSVVTSIIK | inactive
166 | SCVCVMSYQLNVWRKHDSCI | 4.606 ± 0.035
167 | LAYPMISVFYHELIIDLRSM | 3.92 ± 0.11
168 | NYTGQTFVMTGLISFNPQIG | 5.79 ± 0.074

Reference: the supplement of paper PMC12042874
